Laboratory results as given in publication PMC6858569.

Molecular target: mouse TRPV3 with the single residue substitution Y564A (mouse)
Experiment: cryo-EM structure

mouse TRPV3 with the single residue substitution Y564A (natural protein)
stoichiometry N: 4
